Assay results taken from publication PMC11219949.

How the values were obtained:
[1] = biological target: Recombinant His-tagged AUREO1c protein (Phaeodactylum tricornutum aureochrome 1c) (Phaeodactylum tricornutum); test: native MS; UHPLC-native MS (Waters BEH SEC column, 100 mM ammonium acetate, room temperature); 5 uM protein in PBS incubated in the dark for 60 min, then cross-linked with 5 uM BS3 and quenched with Tris
[2] = biological target: Recombinant His-tagged AUREO1c protein (Phaeodactylum tricornutum aureochrome 1c) (Phaeodactylum tricornutum); test: native MS; UHPLC-native MS (Waters BEH SEC column, 100 mM ammonium acetate, room temperature); 5 uM protein in PBS incubated under blue light (200 umol photons m^-2 s^-1) for 60 min, then cross-linked with 5 uM BS3 and quenched with Tris

Recombinant His-tagged AUREO1c protein (Phaeodactylum tricornutum aureochrome 1c) (natural protein)
stoichiometry N [1]: 2
stoichiometry N [2]: 2
